Reference: publication PMC9482650, “Quantitative fragmentomics allow affinity mapping of interactomes” (Nature Communications, 2022)
One block for each binder: values may come before it.

Assays:
Assay in all cases: holdup assay
Design in all cases: key: below the threshold = too weak to quantify, mostly under pKd 3.1 to 4
APBA2_1, Q99767 = target: T1, APBA2_1, Q99767
T1 sequence (Q99767 563-664, limits assumed, looked up): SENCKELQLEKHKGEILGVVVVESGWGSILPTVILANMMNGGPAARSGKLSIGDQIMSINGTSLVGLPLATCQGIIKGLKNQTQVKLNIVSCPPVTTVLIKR

APBA2_2, Q99767 = target: T2, APBA2_2, Q99767
T2 sequence (Q99767 654-744, limits assumed, looked up): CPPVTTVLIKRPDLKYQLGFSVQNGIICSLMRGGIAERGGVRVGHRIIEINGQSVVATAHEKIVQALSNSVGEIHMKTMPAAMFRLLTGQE

ARHGEF11, O15085 = target: T3, ARHGEF11, O15085
T3 sequence (O15085 42-136, limits assumed, looked up): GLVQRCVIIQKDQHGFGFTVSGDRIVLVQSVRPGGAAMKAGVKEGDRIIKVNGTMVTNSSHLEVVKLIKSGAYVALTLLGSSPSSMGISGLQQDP

DFNB31_2, Q9P202 = target: T4, DFNB31_2, Q9P202
T4 sequence (Q9P202 274-371, limits assumed, looked up): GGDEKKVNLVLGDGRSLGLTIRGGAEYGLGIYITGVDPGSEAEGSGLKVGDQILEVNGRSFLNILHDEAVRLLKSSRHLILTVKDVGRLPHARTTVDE

DLG1_1, Q12959 = target: DLG1_1, Q12959
DLG5_1, Q8TDM6 = target: DLG5_1, Q8TDM6
DLG5_1, Q8TDM6, sequence (Q8TDM6 617-713): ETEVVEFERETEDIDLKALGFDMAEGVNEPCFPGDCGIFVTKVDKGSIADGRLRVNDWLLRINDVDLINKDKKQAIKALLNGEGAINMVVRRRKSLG

DVL3, Q92997 = target: T5, DVL3, Q92997
T5 sequence (Q92997 244-331, limits assumed, looked up): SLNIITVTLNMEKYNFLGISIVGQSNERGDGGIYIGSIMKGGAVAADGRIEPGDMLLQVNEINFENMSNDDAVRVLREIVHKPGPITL

GRASP, Q7Z6J2 = target: GRASP, Q7Z6J2
GRASP, Q7Z6J2, sequence (Q7Z6J2 96-193): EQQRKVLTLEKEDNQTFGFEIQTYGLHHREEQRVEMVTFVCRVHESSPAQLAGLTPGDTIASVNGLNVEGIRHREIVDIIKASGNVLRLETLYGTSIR

GRIP2_3, Q9C0E4 = target: GRIP2_3, Q9C0E4
GRIP2_3, Q9C0E4, sequence (Q9C0E4 238-339): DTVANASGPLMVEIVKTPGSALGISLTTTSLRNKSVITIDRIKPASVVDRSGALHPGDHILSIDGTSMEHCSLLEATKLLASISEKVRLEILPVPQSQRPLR

GRIP2_6, Q9C0E4 = target: GRIP2_6, Q9C0E4
GRIP2_6, Q9C0E4, sequence (Q9C0E4 648-740): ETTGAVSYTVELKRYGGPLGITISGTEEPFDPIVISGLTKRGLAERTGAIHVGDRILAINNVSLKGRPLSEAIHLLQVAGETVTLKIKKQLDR

HTRA1, Q92743 = target: HTRA1, Q92743
HTRA1, Q92743, sequence (Q92743 360-477): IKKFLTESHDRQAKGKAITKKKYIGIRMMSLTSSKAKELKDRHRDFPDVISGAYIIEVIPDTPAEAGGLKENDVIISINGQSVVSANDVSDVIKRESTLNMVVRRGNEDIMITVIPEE

IL16_3, Q14005 = target: IL16_3, Q14005
IL16_3, Q14005, sequence (Q14005 1107-1207): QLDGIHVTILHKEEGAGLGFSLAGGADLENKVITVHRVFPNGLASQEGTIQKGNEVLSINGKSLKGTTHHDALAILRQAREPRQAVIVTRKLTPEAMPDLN

IL16_4, Q14005 = target: IL16_4, Q14005
IL16_4, Q14005, sequence (Q14005 1229-1329): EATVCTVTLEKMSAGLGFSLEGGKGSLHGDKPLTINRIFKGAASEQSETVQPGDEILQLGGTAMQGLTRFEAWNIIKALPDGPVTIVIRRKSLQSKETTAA

LIMK2, P53671 = target: LIMK2, P53671
LIMK2, P53671, sequence (P53671 143-248): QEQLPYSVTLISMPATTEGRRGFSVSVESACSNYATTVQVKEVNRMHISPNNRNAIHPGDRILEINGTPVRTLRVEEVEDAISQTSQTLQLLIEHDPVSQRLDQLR

LNX2_3, Q8N448 = target: T6, LNX2_3, Q8N448
T6 sequence (Q8N448 463-564, limits assumed, looked up): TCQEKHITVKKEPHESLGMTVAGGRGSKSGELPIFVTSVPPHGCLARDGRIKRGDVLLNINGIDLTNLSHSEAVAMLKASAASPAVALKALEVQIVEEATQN

MPDZ_10, O75970 = target: T7, MPDZ_10, O75970
T7 sequence (O75970 1624-1722, limits assumed, looked up): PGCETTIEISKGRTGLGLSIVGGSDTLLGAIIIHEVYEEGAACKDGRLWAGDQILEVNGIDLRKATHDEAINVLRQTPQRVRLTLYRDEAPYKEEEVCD

MPP6, Q9NZW5 = target: T8, MPP6, Q9NZW5
T8 sequence (Q9NZW5 125-219, limits assumed, looked up): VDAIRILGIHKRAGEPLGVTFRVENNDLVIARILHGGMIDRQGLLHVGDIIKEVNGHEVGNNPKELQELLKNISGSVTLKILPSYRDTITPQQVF

NHERF4_1, Q86UT5-2 = target: NHERF4_1, Q86UT5-2
NHERF4_1, Q86UT5-2, sequence (Q86UT5 other isoform, or with tags, fused parts or gaps): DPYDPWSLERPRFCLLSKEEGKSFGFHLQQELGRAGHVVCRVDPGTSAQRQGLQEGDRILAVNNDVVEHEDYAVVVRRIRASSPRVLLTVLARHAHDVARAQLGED

PDZD2_2, O15018 = target: T9, PDZD2_2, O15018
T9 sequence (O15018 329-429, limits assumed, looked up): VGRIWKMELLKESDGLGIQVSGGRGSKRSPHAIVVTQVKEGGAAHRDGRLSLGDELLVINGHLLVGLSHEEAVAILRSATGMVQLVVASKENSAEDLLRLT

RAPGEF6, Q8TEU7 = target: T10, RAPGEF6, Q8TEU7
T10 sequence (Q8TEU7 525-625, limits assumed, looked up): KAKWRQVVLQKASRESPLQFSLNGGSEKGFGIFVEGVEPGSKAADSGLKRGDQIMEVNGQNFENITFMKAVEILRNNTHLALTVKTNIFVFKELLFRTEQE

SCRIB_2, Q14160 = target: SCRIB_2, Q14160
SCRIB_2, Q14160, sequence (Q14160 857-960): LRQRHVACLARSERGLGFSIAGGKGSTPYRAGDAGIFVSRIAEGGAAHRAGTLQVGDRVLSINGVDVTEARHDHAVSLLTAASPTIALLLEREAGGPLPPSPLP

SCRIB_3, Q14160 = target: SCRIB_3, Q14160
SCRIB_3, Q14160, sequence (Q14160 999-1103): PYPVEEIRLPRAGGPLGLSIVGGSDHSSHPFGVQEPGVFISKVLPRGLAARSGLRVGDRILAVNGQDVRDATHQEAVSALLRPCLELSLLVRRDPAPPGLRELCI

SNTB1, Q13884 = target: T11, SNTB1, Q13884
T11 sequence (Q13884 107-205, limits assumed, looked up): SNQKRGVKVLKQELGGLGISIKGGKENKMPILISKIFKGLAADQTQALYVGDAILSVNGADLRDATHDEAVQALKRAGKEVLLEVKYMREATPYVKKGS

SNX27, Q96L92 = target: SNX27, Q96L92
TJP1_2, Q07157 = target: TJP1_2, Q07157
TJP1_2, Q07157, sequence (Q07157 181-274): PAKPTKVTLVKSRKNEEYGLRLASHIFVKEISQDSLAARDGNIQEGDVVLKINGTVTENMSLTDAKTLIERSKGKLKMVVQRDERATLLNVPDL

TJP2_1, Q9UDY2 = target: TJP2_1, Q9UDY2
TJP2_1, Q9UDY2, sequence (Q9UDY2 24-128): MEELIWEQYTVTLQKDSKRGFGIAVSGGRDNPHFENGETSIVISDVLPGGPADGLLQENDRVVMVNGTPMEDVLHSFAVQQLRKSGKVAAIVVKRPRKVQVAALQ

[1] = plain residues with an end cap or a label only (N-terminal biotin on a linker: ttds)
[2] = plain residues with an end cap or a label only (N-terminal biotin on a linker: ado-ado)

pKd (APBA2_1, Q99767; [1]): below the threshold | pKd (APBA2_2, Q99767; [1]): below the threshold | pKd (ARHGEF11, O15085; [1]): 4.03 | pKd (DFNB31_2, Q9P202; [1]): 3.62 | pKd (DLG1_1, Q12959; [1]): 3.49 | pKd (DLG5_1, Q8TDM6; [1]): below the threshold | pKd (DVL3, Q92997; [1]): below the threshold | pKd (GRASP, Q7Z6J2; [1]): 3.95 | pKd (GRIP2_3, Q9C0E4; [1]): 3.6 | pKd (GRIP2_6, Q9C0E4; [1]): below the threshold | pKd (HTRA1, Q92743; [1]): 3.64 | pKd (IL16_3, Q14005; [1]): below the threshold | pKd (IL16_4, Q14005; [1]): 3.66 | pKd (LIMK2, P53671; [1]): below the threshold | pKd (LNX2_3, Q8N448; [1]): below the threshold | pKd (MPDZ_10, O75970; [1]): below the threshold | pKd (MPP6, Q9NZW5; [1]): below the threshold | pKd (NHERF4_1, Q86UT5-2; [1]): below the threshold | pKd (PDZD2_2, O15018; [1]): 4.44 | pKd (RAPGEF6, Q8TEU7; [1]): below the threshold | pKd (SCRIB_2, Q14160; [1]): below the threshold | pKd (SCRIB_3, Q14160; [1]): 4.01 | pKd (SNTB1, Q13884; [1]): 3.96 | pKd (SNX27, Q96L92; [1]): 4.04 | pKd (TJP1_2, Q07157; [1]): below the threshold | pKd (TJP2_1, Q9UDY2; [1]): below the threshold
Binder: DPRNTQTSQI [ABRAXAS2, Q15018]

pKd (APBA2_1, Q99767; [2]): below the threshold | pKd (APBA2_2, Q99767; [2]): below the threshold | pKd (ARHGEF11, O15085; [2]): 4.24 | pKd (DFNB31_2, Q9P202; [2]): below the threshold | pKd (DLG1_1, Q12959; [2]): 3.84 | pKd (DLG5_1, Q8TDM6; [2]): below the threshold | pKd (DVL3, Q92997; [2]): below the threshold | pKd (GRASP, Q7Z6J2; [2]): 4.43 | pKd (GRIP2_3, Q9C0E4; [2]): below the threshold | pKd (GRIP2_6, Q9C0E4; [2]): below the threshold | pKd (HTRA1, Q92743; [2]): 3.73 | pKd (IL16_3, Q14005; [2]): below the threshold | pKd (IL16_4, Q14005; [2]): 3.55 | pKd (LIMK2, P53671; [2]): below the threshold | pKd (LNX2_3, Q8N448; [2]): below the threshold | pKd (MPDZ_10, O75970; [2]): 3.73 | pKd (MPP6, Q9NZW5; [2]): 3.87 | pKd (NHERF4_1, Q86UT5-2; [2]): 4.53 | pKd (PDZD2_2, O15018; [2]): 4.12 | pKd (RAPGEF6, Q8TEU7; [2]): below the threshold | pKd (SCRIB_2, Q14160; [2]): 3.77 | pKd (SCRIB_3, Q14160; [2]): 3.59 | pKd (SNTB1, Q13884; [2]): 4.17 | pKd (SNX27, Q96L92; [2]): 4.85 | pKd (TJP1_2, Q07157; [2]): 3.5 | pKd (TJP2_1, Q9UDY2; [2]): 3.72
Binder: TETASVCTKV [SLC23A1, Q9UHI7]

pKd (APBA2_1, Q99767; [1]): below the threshold | pKd (APBA2_2, Q99767; [1]): below the threshold | pKd (ARHGEF11, O15085; [1]): 4.52 | pKd (DFNB31_2, Q9P202; [1]): 3.77 | pKd (DLG1_1, Q12959; [1]): 4.97 | pKd (DLG5_1, Q8TDM6; [1]): below the threshold | pKd (DVL3, Q92997; [1]): below the threshold | pKd (GRASP, Q7Z6J2; [1]): 4.47 | pKd (GRIP2_3, Q9C0E4; [1]): below the threshold | pKd (GRIP2_6, Q9C0E4; [1]): below the threshold | pKd (HTRA1, Q92743; [1]): 4.75 | pKd (IL16_3, Q14005; [1]): below the threshold | pKd (IL16_4, Q14005; [1]): below the threshold | pKd (LIMK2, P53671; [1]): below the threshold | pKd (LNX2_3, Q8N448; [1]): below the threshold | pKd (MPDZ_10, O75970; [1]): 4.14 | pKd (MPP6, Q9NZW5; [1]): 3.54 | pKd (NHERF4_1, Q86UT5-2; [1]): below the threshold | pKd (PDZD2_2, O15018; [1]): 4.44 | pKd (RAPGEF6, Q8TEU7; [1]): 3.63 | pKd (SCRIB_2, Q14160; [1]): below the threshold | pKd (SCRIB_3, Q14160; [1]): 4.24 | pKd (SNTB1, Q13884; [1]): 4.73 | pKd (SNX27, Q96L92; [1]): 4.43 | pKd (TJP1_2, Q07157; [1]): below the threshold | pKd (TJP2_1, Q9UDY2; [1]): 3.91
Binder: LCALPKVTTV [AGMAT, Q9BSE5]
